From the supplement of paper PMC10266784

B1: library; numbered along this chain (parent)
chain: MAAAAAAAAEQQSSNGPVKKSMREKAVERRSVNKEHNSNFKAGYIPIDEDRLHKTGLRGRKGNLAICVIILLFILAVINLIITLVIWAVIRIGPNGCDSMEFHESGLLRFKQVSDMGVIHPLYKSTVGGRRNENLVITGNNQPIVFQQGTTKLSVENNKTSITSDIGMQFFDPRTQNILFSTDYETHEFHLPSGVKSLNVQKASTERITSNATSDLNIKVDGRAIVRGNEGVFIMGKTIEFHMGGNMELKAENSIILNGSVMVSTTRLPSSSSGDQLGSGDWVRYKLCMCADGTLFKVQVTSQNMGCQISDNPCGNTH

Variants of: B1
Assay: SGCB cell-surface expression functional score (HA stain, bin4 vs bin1, normalised to synonymous) (log10 ratio); higher = more cell-surface SGCB (functional)
Method in brief: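 Human beta-sarcoglycan, tagged with HA and fused to YFP, was built into codon-saturation libraries and delivered by lentivirus at MOI <0.1 into HEK293 cells that stably express alpha-, gamma- and delta-sarcoglycan. After 72 hours, YFP-positive cells were sorted and grown for 5–7 days, then stained on ice with Alexa Fluor 647 anti-HA, fixed, sorted into four 5% intensity bins and amplicon-sequenced. Each variant's functional score is the log ratio of its frequency in the highest bin to that in the lowest bin, taken as the median across codons and transductions. Transductions were done in duplicate, and synonymous variants were scaled per section to mean 0, SD 0.5.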

SGCB cell-surface expression functional score (log10): each site, then its substitutions
I178: T -0.41 | E -2.31 | W -1.15 | V 0.68 | N -0.4 | R -0.26 | K -0.57 | C -0.6 | M -0.88 | H -0.39 | Q -0.75 | A -1.66 | L 0.3 | D -0.82 | F -0.92 | G -0.44 | Y -1.19 | S -1.13 | P 0.29
Q176: E 0.27 | L -0.17 | V -0.31 | D 0.07 | I -0.61 | G 0.46 | Y -0.78 | C 1.06 | N 0.38 | W -0.21 | H -0.38 | S -0.24 | K -0.32 | R 0.16 | T -0.34 | M -0.21 | A 0.1 | F -0.66 | P -0.31
L179: W 1.37 | I -0.73 | N -1.22 | P -0.55 | M -1.01 | G -0.53 | T -1.12 | S -1.32 | H -1.99 | Q -0.03 | Y -0.54 | D -1.87 | A 0.06 | F 0.08 | E -1.07 | K 0.28 | V -0.27 | R 0.67
F171: V -0.07 | S -0.28 | P -0.43 | I 0.86 | N -0.08 | T 0.72 | Q 0.8 | K 0.12 | M 1.04 | Y 0.03 | E -1.22 | C -1.66 | L 0.15 | A -0.81 | R 0.04
H187: G -1.69 | K -0.37 | D 0.45 | L -1.47 | F -0.63 | E 0.18 | I -0.51 | A -0.81 | C 0.07
D183: I -1.89 | G -1.31 | V -0.86 | Y -0.53 | K -0.36 | S -0.22 | A 1.15 | H -0.33 | Q -0.56 | E 0.35 | R -0.21 | N -0.15 | P -1.43 | W 0.54 | L -0.71 | T -0.79 | M -0.83 | C -1.17 | F -1.63
T182: W -1.65 | I -1 | C -2.09 | E -1.6 | L -1.43 | F -2.63 | D -2.4 | H -1.44 | N -1.25 | V -1.47 | Y -2.23 | M -1.87 | A -1.25 | G -1.06 | S -1.55 | P -1.25 | Q -1.49 | R -1.25 | K -0.75
R174: C -0.43 | A 0.02 | V -0.32 | Y -0.17 | E -0.22 | N -1.48 | H -0.58 | Q -1.07 | K 0.08 | I -0.15 | W -0.75 | L 0.05 | S -0.45 | T 0.3 | F -0.97 | D -0.81 | P -0.77 | G -0.63 | M 0.09
S181: T -0.51 | D -0.41 | C -0.89 | P -1.69 | V -1.52 | I -1.25 | Y -1.76 | F -1.53 | R -0.87 | W -1.97 | M 0.13 | Q -1.57 | H -1.65 | A 0.2 | L -1.37 | G -0.94 | N -1 | K -1.64 | E -1.4
F170: K -0.63 | N -1.47 | Y -0.86 | S -0.47 | T -0.01 | V 0.47 | C -0.28 | G -0.91 | D -1.87 | P -1.16 | L 0.11 | I 0.36 | E -2.21 | A -0.27 | Q -0.12 | R -1.14
P173: E 0 | M 0 | N -0.77 | W -1.02 | C -0.22 | L -0.21 | V 0.67 | F -0.34 | K -0.93 | G -0.17 | S 0.5 | Q 0.62 | T -0.17 | D -0.84 | A -0.38 | H 0.19 | I -0.68 | Y -0.68 | R -0.47
E185: T -1.1 | G -0.26 | R -0.63 | M -1.36 | A 0.2 | Y 0.02 | L -0.11 | N -0.3 | V -0.42 | W -0.87 | Q -0.17 | D 0.34 | S 0.53 | H -1.02 | K -0.01 | I -0.23 | C 0.41 | F -0.44 | P 0.33
Y184: S -1.04 | H -0.69 | I -1.85 | E -0.73 | G -1.39 | C -0.8 | T -1.17 | V -2.52 | M -1.01 | D -0.8 | N -1.22 | R -1.19 | P -0.93 | A -0.95 | K -1.77 | F 0.26 | L -1.63 | Q -0.78
T186: D 0.53 | P -1.73 | H 0.62 | C -0.92 | L -0.15 | W -1.12 | M -1.55 | Q 0.7 | A 0.54 | I 0.3 | F -0.05 | N -0.55 | E 0.13 | V -0.85 | Y 0.08 | S -0.18 | G -0.44 | R 0.06 | K 0.28
T175: Y 0.07 | A 0.26 | Q 1.26 | R 0.24 | P -1.3 | I -0.13 | N -0.16 | E -0.42 | M -0.5 | F 0.17 | W 1.12 | H 0.32 | K -0.54 | V -0.16 | G 0.14 | L 0.08 | S -0.04 | C -0.43 | D -0.47
F180: C -1.87 | L -0.42 | N -2.28 | M -1.82 | E -1.03 | V -2.01 | D -1.86 | R -1.76 | Q -1.66 | P -1.31 | H -2.25 | G -1.85 | T -1.29 | Y -1.77 | K -1.78 | S -1.41 | I -1.72 | A -2.1
Q169: R 0.09 | L -0.69 | W -1.48 | P -1.46 | K 0 | V -0.23 | N -1.92 | I 0.44 | T -0.04 | Y -0.36 | S 0.27 | M -1.88
D172: G 0.2 | I -1.04 | T 0.25 | E 0.42 | L 0.77 | A 0.03 | S 0.68 | F -0.3 | P -1.12 | H 0.44 | M 0.46 | R -0.58 | W -0.88 | V 0.26 | Y -0.12 | N -0.02 | C 0.95 | K -0.36 | Q -0.19
N177: G 0.05 | V 0.4 | T 0.39 | E 0.19 | R 0.42 | H 0.09 | P -1.5 | K -0.45 | Y 0.11 | C 0.09 | W -0.44 | Q 1.3 | D 0.12 | L 0.29 | A 0.49 | M -0.24 | I 0.12 | F -0.18 | S 0.02
